Experimental data published in patent publication US20240197902A1 (published 2024).

B1: Activin B (ligand)
chain: GLECDGRTNLCCRQQFFIDFRLIGWNDWIIAPTGYYGNYCEGSCPAYLAGVPGSASSFHTAVVNQYRMRGLNPGTVNSCCIPTKLSTMSMLYFDDEYNIVKRDVPNMIVEECGCA
B2: Activin A (ligand)
chain: GLECDGKVNICCKKQFFVSFKDIGWNDWIIAPSGYHANYCEGECPSHIAGTSGSSLSFHSTVINHYRMRGHSPFANLKSCCVPTKLRPMSMLYYDDGQNIIKKDIQNMIVEECGCS
B3: GDF11 (ligand)
chain: NLGLDCDEHSSESRCCRYPLTVDFEAFGWDWIIAPKRYKANYCSGQCEYMFMQKYPHTHLVQQANPRGSAGPCCTPTKMSPINMLYFNDKQQIIYGKIPGMVVDRCGCS
B4: BMP9 (ligand)
chain: SAGAGSHCQKTSLRVNFEDIGWDSWIIAPKEYEAYECKGGCFFPLADDVTPTKHAIVQTLVHLKFPTKVGKACCVPTKLSPISVLYKDDMGVPTLKYHYEGMSVAECGCR
B5: BMP10 (ligand)
chain: NAKGNYCKRTPLYIDFKEIGWDSWIIAPPGYEAYECRGVCNYPLAEHLTPTKHAIIQALVHLKNSQKASKACCVPTKLEPISILYLDKGVVTYKFKYEGMAVSECGCR

target: ActRIIB L38N/L79R; test: SPR; 37 C

Kd [nM] | Binder
0.0369 | B1
0.339 | B2

target: ActRIIB F82T; test: SPR; 37 C

Kd [nM] | Binder
0.012 | B1
0.0109 | B2

target: ActRIIB E50L; test: SPR; 37 C

Kd [nM] | Binder
0.159 | B1
0.0456 | B2

target: ActRIIB-G1Fc; test: SPR; 37 C

Kd [nM] | Binder
0.0085 | B1
0.0146 | B2

target: ActRIIB V99G; test: SPR; 37 C

Kd [nM] | Binder
0.847 | B1

target: ActRIIB L38N/L79R; test: SPR; 37 C; remark: another data set of the same source

Kd [nM] | Binder
0.0886 | B3
2.13 | B4
0.293 | B5

target: ActRIIB F82T; test: SPR; 37 C; remark: another data set of the same source

Kd [nM] | Binder
0.0267 | B3
0.0092 | B5

target: ActRIIB E50L; test: SPR; 37 C; remark: another data set of the same source

Kd [nM] | Binder
0.187 | B3
0.103 | B4
0.163 | B5

target: ActRIIB-G1Fc; test: SPR; 37 C; remark: another data set of the same source

Kd [nM] | Binder
0.01 | B3
0.0911 | B4
0.0409 | B5

target: ActRIIB V99G; test: SPR; 37 C; remark: another data set of the same source

Kd [nM] | Binder
0.184 | B3
0.951 | B5

target: L79W; test: SPR; 25 C

Kd [nM] | Binder
0.044 | B3
0.11 | B4
0.26 | B2
0.16 | B5

target: L38Q; test: SPR; 25 C

Kd [nM] | Binder
0.021 | B3
0.033 | B4
0.2 | B2
0.089 | B5

target: N35E; test: SPR; 25 C

Kd [nM] | Binder
0.028 | B3
0.8 | B2
0.28 | B5

target: F82T; test: SPR; 25 C

Kd [nM] | Binder
0.018 | B3
0.082 | B4
0.14 | B5

target: Q98L; test: SPR; 25 C

Kd [nM] | Binder
0.043 | B3
0.071 | B4
0.22 | B2
0.065 | B5

target: Q98I; test: SPR; 25 C

Kd [nM] | Binder
0.049 | B3
0.059 | B4
0.157 | B2
0.21 | B5

target: N35Q; test: SPR; 25 C

Kd [nM] | Binder
0.02 | B3
0.32 | B2
0.27 | B5

target: Q98K; test: SPR; 25 C

Kd [nM] | Binder
0.037 | B3
0.069 | B4
0.145 | B2
0.068 | B5

target: Q98R; test: SPR; 25 C

Kd [nM] | Binder
0.02 | B3
0.074 | B4
0.3 | B2
0.32 | B5

target: N35F; test: SPR; 25 C

Kd [nM] | Binder
0.017 | B3
0.29 | B2
0.22 | B5

target: L38R; test: SPR; 25 C

Kd [nM] | Binder
0.007 | B3
0.05 | B4
0.23 | B2
0.11 | B5

target: Q98V; test: SPR; 25 C

Kd [nM] | Binder
0.033 | B3
0.047 | B4
0.16 | B2
0.048 | B5

target: ActRIIB-G1Fc; test: SPR; 25 C

Kd [nM] | Binder
0.011 | B3
0.059 | B4
0.25 | B2
0.169 | B5

target: Q98A; test: SPR; 25 C

Kd [nM] | Binder
0.037 | B3
0.043 | B4
0.155 | B2
0.21 | B5

target: L38D; test: SPR; 25 C

Kd [nM] | Binder
0.03 | B3
0.063 | B4
0.23 | B2
0.15 | B5

target: K55A; test: SPR; 37 C

Kd [nM] | Binder
0.026 | B3
0.142 | B4
0.046 | B2
0.023 | B5

target: L79K; test: SPR; 37 C

Kd [nM] | Binder
0.14 | B3
1.1 | B4
0.13 | B2
1.4 | B5

target: K55A/F82I; test: SPR; 37 C

Kd [nM] | Binder
0.09 | B3
0.134 | B4
0.047 | B2
0.007 | B5

target: F82K; test: SPR; 37 C

Kd [nM] | Binder
0.057 | B3
0.093 | B2
0.008 | B5

target: F82I; test: SPR; 37 C

Kd [nM] | Binder
0.01 | B3
0.275 | B4
0.078 | B2
0.008 | B5

target: K74A; test: SPR; 37 C

Kd [nM] | Binder
0.43 | B3
0.36 | B4
0.034 | B2
0.033 | B5

target: L79K/F82K; test: SPR; 37 C

Kd [nM] | Binder
1.6 | B3
0.64 | B2
0.068 | B5

target: K55E; test: SPR; 37 C

Kd [nM] | Binder
0.052 | B3
0.27 | B4
0.064 | B2
0.014 | B5

target: ActRIIB-G1Fc; test: SPR; 37 C; remark: another data set of the same source

Kd [nM] | Binder
0.012 | B3
0.037 | B4
0.047 | B2

target: ActRIIB F82T; test: SPR; 37 C; transient

Kd [nM] | Binder
6.17 | B4
